20 substances from US20230135471A1, “UBIQUITIN VARIANTS WITH IMPROVED AFFINITY FOR 53BP1” (Integrated DNA Technologies, Inc., priority 2021, published 2023) can be followed below.

The target in this assay is 53BP1 fragment (a.a. 1221-1718) fused to an adenylate cyclase fragment (two-hybrid) (UniProt Q12888). Description: cell-based or functional assay.
“i53 + A28D two-hybrid fusion (designed binder)” gave an Experiment 1 Average Enrichment of 0.02 log2, an Experiment 1 Rep 1 Enrichment of -0.25 log2, an Experiment 1 Rep 2 Enrichment of 0.29 log2 and an Experiment 2 Average Enrichment of -0.41 log2. The substance also yielded an Experiment 2 Rep 1 Enrichment of -0.24 log2 and an Experiment 2 Rep 2 Enrichment of -0.58 log2.
“i53 + A28E two-hybrid fusion (designed binder)” displayed an Experiment 1 Average Enrichment of 0.31 log2, an Experiment 1 Rep 1 Enrichment of 0.23 log2, an Experiment 1 Rep 2 Enrichment of 0.4 log2 and an Experiment 2 Average Enrichment of 0.42 log2. The same substance registered an Experiment 2 Rep 1 Enrichment of 0.53 log2 and an Experiment 2 Rep 2 Enrichment of 0.32 log2.
“i53 + A28I two-hybrid fusion (designed binder)” yielded an Experiment 1 Average Enrichment of 0.05 log2, an Experiment 1 Rep 1 Enrichment of -0.45 log2, an Experiment 1 Rep 2 Enrichment of 0.56 log2 and an Experiment 2 Average Enrichment of 0.05 log2. Also, the Experiment 2 Rep 1 Enrichment came to 0.37 log2 and the Experiment 2 Rep 2 Enrichment was -0.28 log2.
The substance “i53 + A28M two-hybrid fusion (designed binder)” gave an Experiment 1 Average Enrichment of 0.03 log2, an Experiment 1 Rep 1 Enrichment of 0.49 log2, an Experiment 1 Rep 2 Enrichment of -0.42 log2 and an Experiment 2 Average Enrichment of -0.19 log2. Also, the Experiment 2 Rep 1 Enrichment was -0.51 log2 and the Experiment 2 Rep 2 Enrichment was found to be 0.12 log2.
As to “i53 + A28Q two-hybrid fusion (designed binder)”, the Experiment 1 Average Enrichment was 0.44 log2, the Experiment 1 Rep 1 Enrichment came out at 0.47 log2, the Experiment 1 Rep 2 Enrichment came to 0.42 log2 and the Experiment 2 Average Enrichment is 0.14 log2. The same substance displayed an Experiment 2 Rep 1 Enrichment of 0.59 log2 and an Experiment 2 Rep 2 Enrichment of -0.31 log2.
Consider “i53 + A28W two-hybrid fusion (designed binder)”, for which the Experiment 1 Average Enrichment was 0.03 log2, the Experiment 1 Rep 1 Enrichment is 0.48 log2, the Experiment 1 Rep 2 Enrichment was -0.41 log2 and the Experiment 2 Average Enrichment stood at 0.12 log2. The substance further had an Experiment 2 Rep 1 Enrichment of 0.41 log2 and an Experiment 2 Rep 2 Enrichment of -0.17 log2.
The substance “i53 + A46G two-hybrid fusion (designed binder)” came in with an Experiment 1 Average Enrichment of 0.6 log2, an Experiment 1 Rep 1 Enrichment of 0.48 log2, an Experiment 1 Rep 2 Enrichment of 0.72 log2 and an Experiment 2 Average Enrichment of -0.17 log2. The Experiment 2 Rep 1 Enrichment was found to be 1.37 log2 and the Experiment 2 Rep 2 Enrichment was -1.71 log2.
As to “i53 + D21E two-hybrid fusion (designed binder)”, the Experiment 1 Average Enrichment turned out to be 0.51 log2, the Experiment 1 Rep 1 Enrichment was 0.2 log2, the Experiment 1 Rep 2 Enrichment came to 0.82 log2 and the Experiment 2 Average Enrichment is -0.23 log2. The substance further registered an Experiment 2 Rep 1 Enrichment of -0.63 log2 and an Experiment 2 Rep 2 Enrichment of 0.16 log2.
For “i53 + D32A two-hybrid fusion (designed binder)”, the Experiment 1 Average Enrichment came to 0.11 log2, the Experiment 1 Rep 1 Enrichment came out at 0.2 log2, the Experiment 1 Rep 2 Enrichment turned out to be 0.02 log2 and the Experiment 2 Average Enrichment was found to be 0.19 log2. The substance also came in with an Experiment 2 Rep 1 Enrichment of 0.19 log2 and an Experiment 2 Rep 2 Enrichment of 0.19 log2.
Substance “i53 + D32E two-hybrid fusion (designed binder)” displayed an Experiment 1 Average Enrichment of 0.21 log2, an Experiment 1 Rep 1 Enrichment of 0.41 log2, an Experiment 1 Rep 2 Enrichment of 0 log2 and an Experiment 2 Average Enrichment of -0.19 log2. The substance also came in with an Experiment 2 Rep 1 Enrichment of -0.11 log2 and an Experiment 2 Rep 2 Enrichment of -0.28 log2.
In turn, “i53 + D32R two-hybrid fusion (designed binder)” gave an Experiment 1 Average Enrichment of 0.03 log2, an Experiment 1 Rep 1 Enrichment of 0.61 log2, an Experiment 1 Rep 2 Enrichment of -0.54 log2 and an Experiment 2 Average Enrichment of -0.46 log2. The Experiment 2 Rep 1 Enrichment is -0.53 log2 and the Experiment 2 Rep 2 Enrichment is -0.39 log2.
In the case of “i53 + D39E two-hybrid fusion (designed binder)”, the Experiment 1 Average Enrichment came out at 0.36 log2, the Experiment 1 Rep 1 Enrichment was 0.29 log2, the Experiment 1 Rep 2 Enrichment came out at 0.44 log2 and the Experiment 2 Average Enrichment is -0.18 log2. The substance further had an Experiment 2 Rep 1 Enrichment of -0.14 log2 and an Experiment 2 Rep 2 Enrichment of -0.23 log2.
“i53 + D39G two-hybrid fusion (designed binder)” registered an Experiment 1 Average Enrichment of -0.21 log2, an Experiment 1 Rep 1 Enrichment of -0.2 log2, an Experiment 1 Rep 2 Enrichment of -0.22 log2 and an Experiment 2 Average Enrichment of 0.06 log2. Also, the Experiment 2 Rep 1 Enrichment was 0.6 log2 and the Experiment 2 Rep 2 Enrichment was -0.49 log2.
“i53 + D39L two-hybrid fusion (designed binder)” registered an Experiment 1 Average Enrichment of 0.06 log2, an Experiment 1 Rep 1 Enrichment of 0.49 log2, an Experiment 1 Rep 2 Enrichment of -0.38 log2 and an Experiment 2 Average Enrichment of -2.16 log2. Besides, the Experiment 2 Rep 1 Enrichment was -2.9 log2 and the Experiment 2 Rep 2 Enrichment is -1.42 log2.
In turn, “i53 + D39Q two-hybrid fusion (designed binder)” gave an Experiment 1 Average Enrichment of -2.78 log2, an Experiment 1 Rep 1 Enrichment of -3.1 log2, an Experiment 1 Rep 2 Enrichment of -2.46 log2 and an Experiment 2 Average Enrichment of 0.03 log2. The same substance yielded an Experiment 2 Rep 1 Enrichment of -0.45 log2 and an Experiment 2 Rep 2 Enrichment of 0.51 log2.
Take “i53 + D39S two-hybrid fusion (designed binder)”: the Experiment 1 Average Enrichment is -1.51 log2, the Experiment 1 Rep 1 Enrichment is -2.04 log2, the Experiment 1 Rep 2 Enrichment is -0.99 log2 and the Experiment 2 Average Enrichment amounted to 0.04 log2. This substance also showed an Experiment 2 Rep 1 Enrichment of 0.16 log2 and an Experiment 2 Rep 2 Enrichment of -0.08 log2.
“i53 + D39W two-hybrid fusion (designed binder)” returned an Experiment 1 Average Enrichment of 0.99 log2, an Experiment 1 Rep 1 Enrichment of 0.9 log2, an Experiment 1 Rep 2 Enrichment of 1.09 log2 and an Experiment 2 Average Enrichment of 0 log2. The substance further returned an Experiment 2 Rep 1 Enrichment of 0.86 log2 and an Experiment 2 Rep 2 Enrichment of -0.85 log2.
As for “i53 + D52E two-hybrid fusion (designed binder)”, the Experiment 1 Average Enrichment amounted to 0.28 log2, the Experiment 1 Rep 1 Enrichment was determined as 0.43 log2, the Experiment 1 Rep 2 Enrichment amounted to 0.14 log2 and the Experiment 2 Average Enrichment was 0.04 log2. Further, the Experiment 2 Rep 1 Enrichment is -0.3 log2 and the Experiment 2 Rep 2 Enrichment is 0.37 log2.
On to “i53 + D58S two-hybrid fusion (designed binder)”, for which the Experiment 1 Average Enrichment came out at 0.33 log2, the Experiment 1 Rep 1 Enrichment worked out at 0.29 log2, the Experiment 1 Rep 2 Enrichment was determined as 0.38 log2 and the Experiment 2 Average Enrichment is 0.21 log2. Besides, the Experiment 2 Rep 1 Enrichment stood at 0.24 log2 and the Experiment 2 Rep 2 Enrichment came out at 0.17 log2.
With “i53 + E16D two-hybrid fusion (designed binder)”, the Experiment 1 Average Enrichment is -0.2 log2, the Experiment 1 Rep 1 Enrichment was -0.69 log2, the Experiment 1 Rep 2 Enrichment stood at 0.3 log2 and the Experiment 2 Average Enrichment was determined as 0.13 log2. The substance further gave an Experiment 2 Rep 1 Enrichment of 0.42 log2 and an Experiment 2 Rep 2 Enrichment of -0.15 log2.
